Results reported in the supplement of paper PMC9170038.

System: MS2 coat protein
Assay: apparent KD of MS2 coat protein; designed switch direction (-1 OFF switch, 1 ON switch): -1; higher = weaker reporter binding
Method in brief: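 An oligonucleotide input, 200 uM small-molecule ligand, or no input was present during titration of SNAP-549-labelled MS2 coat protein, which was doubled from 0.7 or 1.5 nM to 3 µM. Designed RNA switches had been transcribed on Illumina chips by stalled E. coli RNA polymerase. Apparent KD per design is the median over clusters of curves fitted to normalised cluster fluorescence.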

[1] = Eterna round: R95, input ligand: microRNA oligo, concentration not stated
[2] = input ligand: microRNA oligo, concentration not stated
[3] = Eterna round: R95, input ligand: FMN 200 uM
[4] = Eterna round: R95, input ligand: none

Sequence | apparent KD of MS2 coat protein [1] | apparent KD of MS2 coat protein (input ligand: FMN 200 uM) | apparent KD of MS2 coat protein (input ligand: none) | further results
GCCUCACAUGAGGAUCACCCAUGUCAGGAUAUAGGAGACGGUAGCUUUGCUGCCAUCGCUAGAAGGGACUGGCU (puzzle: Exclusion 1) | 65.6 nM |  |  | 
GCCUCACUUGAGGAUCACCCAAGUCAGGAUAUCUACAAGCCGGCCAUGCCAGCUUGCAAGAGAAGGGACUCUAA [Diazale] (Eterna round: R97, puzzle: Exclusion 1) |  | 205 nM | 31.6 nM | 
GCCUCACUUGAGGAUCACCCAAGUCAGGAUAUCUACAGGCCGGCCAUACCGACCUGCAAGAGAAGGGACUCUAA [Aristi] (Eterna round: R97, puzzle: Exclusion 1) |  | 211 nM | 31.4 nM | 
GCCUCGUCAGGAUAUUGGGAAGGCUGUUUUAUGAUUGCCCACAAGAAGGGACAUGAGGAUCACCCAUGUACAUU [Eternabot (L1) Solution 51] (Eterna round: R97, puzzle: Exclusion 4) |  | 63.3 nM | 32.5 nM | 
GCCUGUGAAGGAUAUACAUGAGGAUCACCCAUGUGGCGGGCAUACCCGCCGAGACCGUGUAGAAGGUCAUAGUA [Telamais] (puzzle: Exclusion 3) | 49.9 nM |  |  | 
GCCUUACAUGAGGAUCACCCAUGUCAGGAUAUGUCAGAGUAGGUAAAACACCACUCUAAUAGAAGGGACAUGCA [Diisarlais] (puzzle: Exclusion 1) | 16.5 nM |  |  | 
GCGAUAAACGAGGAUAUCGUAUCGGAAACGAUACGAGAAGGUGUAACAUGAGGAUCACCCAUGUUCCUCAACGC [Mat - Exclusion 6 - Eli Mod - D65] (puzzle: Exclusion 6) | 36.3 nM |  |  | 
GCGAUGUGAGGAUAUACAAGGUGUGAGAGUGCUUGAACGUAACAUGAGGAUCACCCAUGUAGAAGGUAUGUGAU [Eternabot (L1) Solution 29] (Eterna round: R97, puzzle: Exclusion 2) |  | 109 nM | 181 nM | 
GCGCAAACGCCAAAAGGCGAAAUUACAUGAGGAUCACCCAUGUAGGAUAUCGAUUGCUUUGCAGUCGAGAAGGACAUGAUGCGC [JL ENG3 3.80 Mod 1] (Eterna round: R96, puzzle: Exclusion NG 3) |  |  |  | apparent KD of MS2 coat protein [2]: 13.6 nM
GCGGAAAACUUAGGAUAUCAGGGCUGCACAUGAGGAUCACCCAUGUGAUAGCUCUAACGCGGUCCUGAGAAGGGAGAGCCCGGA [Rarasoa] (Eterna round: R96, puzzle: Exclusion NG 2) |  | 94.2 nM | 44.7 nM | apparent KD of MS2 coat protein [2]: 43.8 nM
GCGGUACAUGAGGAUCACCCAUGUUAGGAUAUUCUACGUCUCUAAUCUGAAACGCAAGGAAGAAGGAGCGUGGG [Eternabot (Original) Solution 21] (Eterna round: R97, puzzle: Exclusion 1) |  | 83.7 nM | 28.2 nM | 
GCUCGCUGAGGAUAUACUAAAACACGCUCUGGGAGGUCUUGACUUGAGGAUCACCCAAGUAGAAGGCAGUUAAA [Zaesleeran] (Eterna round: R97, puzzle: Exclusion 2) |  | 437 nM | 450 nM | 
GCUCGUACGGAGGAUAUAGAUUUCGGAAACCGACUAGAAGGCCGAACAUGAGGAUCACCCAUGUGAUUUAUAUC [Gesozarequ] (puzzle: Exclusion 6) | 18.9 nM |  |  | apparent KD of MS2 coat protein [3]: 23.2 nM; apparent KD of MS2 coat protein [4]: 23.4 nM
GCUCUGCGAGGAUAUACAUGAGGAUCACCCAUGUGCGAGUUACUUGUGAGGUCGGUUGGUAGAAGGCGCGGAGG [Mat - Exclusion 3 - Mod of JL D100] (puzzle: Exclusion 3) | 77.5 nM |  |  | 
GCUGGUAUAGGAUAUACGUAAGACGUGGUCCACAGUUAAUUACAUGAGGAUCACCCAUGUAGAAGGAUGGAAGC [Eternabot (L2) Solution 95] (Eterna round: R97, puzzle: Exclusion 2) |  | 298 nM | 65.8 nM | 
GCUGGUCGAGGAUAUACAAUCGUGCUUCGGCACGUAAGGUCACAUGAGGAUCACCCAUGUAGAAGGCGACCAGC [E2/2-A2] (Eterna round: R97, puzzle: Exclusion 2) |  | 175 nM | 30.9 nM | 
GCUGGUCGAGGAUAUACAUGAGGAUCACCCAUGUAGAUCAACCAGCUUCGGCUGGAAUGUAGAAGGCGACCAGC [E3/5-A4] (Eterna round: R97, puzzle: Exclusion 3) |  | 117 nM | 19.5 nM | 
GCUGGUCGAGGAUAUACAUGAGGAUCACCCAUGUGGUCACGUGACGAUAGUCACGAAUGUAGAAGGUGACCAGC [E3/3-B1] (Eterna round: R97, puzzle: Exclusion 3) |  | 107 nM | 1760 nM | 

Sequence | apparent KD of MS2 coat protein [1] | apparent KD of MS2 coat protein (input ligand: FMN 200 uM) | apparent KD of MS2 coat protein (input ligand: none) | further results
GCUGGUCGAGGAUAUAUAUGACGUGCUUCGGCACGAAGAUCACAUGAGGAUCACCCAUGUAGAAGGCGACCAGC [E2/8-A1] (Eterna round: R97, puzzle: Exclusion 2) |  | 1480 nM | 156 nM | 
GCUGUCACCGUUAGGAUAUGUGAUUAAAUAUGAUCGCAGAAGGAACAUGAGGAUCACCCAUGUCGAUCCGUCCG [Eternabot (L1) Solution 36] (Eterna round: R97, puzzle: Brourd's mod of Exclusion 4) |  | 34.8 nM | 23.1 nM | 
GCUUGUAGAGGAUAUACAAGGGCCUUAGCGAAUAACACCGCACAUGAGGAUCACCCAUGUAGAAGGCUACCACC [Tezausesti] (puzzle: Exclusion 2) | 15.2 nM |  |  | 
GCUUGUAGAGGAUAUACAAGGGCCUUAGCGGAUAACACCGCACAUGAGGAUCACCCAUGUAGAAGGCUACCACC [Veorlace] (puzzle: Exclusion 2) | 16.6 nM |  |  | 
GCUUUUGGGCAAGGAUAUCCUGCGCGGUUCUGGUUCGUGUCUGUCACAUGAGGAUCACCCAUGUGGGAGAAGGUGCCUGUGGUG [Design 71] (Eterna round: R96, puzzle: Exclusion NG 2) |  | 38.1 nM | 23 nM | apparent KD of MS2 coat protein [2]: 16.9 nM
GGAAAAUGAGGAUAUACAUGUUUGAUACCUCUACGCCCGCAACAUGAGGAUCACCCAUGUAGAAGGCAUGAAAA [Marius] (puzzle: Exclusion 2) | 13.9 nM |  |  | 
GGAAAUCAUGUAGGAUAUGCGUGGCGAAGCUAUGCAGAAGGACAUGAGGAUCACCCAUGUGCUUCCGUCUGCGUACAGACGGAA [Mat - Exclusion NG 1 - Mod of JL - D20] (Eterna round: R96, puzzle: Exclusion NG 1) |  | 32.3 nM | 186 nM | apparent KD of MS2 coat protein [2]: 77.9 nM
GGAAAUCAUGUAGGAUAUGCGUGGCGAAGCUAUGCAGAAGGACAUGAGGAUCACCCAUGUGCUUCCGUCUGCGUACAGACGGUA [Mat - Exclusion NG 1 - Mod of JL - D19] (Eterna round: R96, puzzle: Exclusion NG 1) |  | 80.2 nM | 143 nM | apparent KD of MS2 coat protein [2]: 78.5 nM
GGAAGAAUGAGUAGUCCUCAUUGAAGAGAACAGUAAGAAACAUGAGGAUCACCCAUGUAAGAACAAGCUUUUGCUCA [JR_Sv3TOV2_Sub002] (puzzle: Sensor v3, turn-off variant 2) | 699 nM |  |  | apparent KD of MS2 coat protein [3]: 168 nM; apparent KD of MS2 coat protein [4]: 259 nM
GGAAGGUCAGGAUAUGCGAGGGAGUGGGAAAUAGGAUGGUAGCAGAAGGGACAUGAGGAUCACCCAUGUUAGGA [JR_Exclu4_Sub0101] (puzzle: Exclusion 4) | 28 nM |  |  | 
GGAAGUAGAAACCGAUCCUACAUGAGGAUCACCCAUGUAGCAAGACGUGCACGCGAAGCUCGUCAGACUACCAGAAA [salish99_TOv1_r3_009] (puzzle: Sensor v3, turn-off variant 1) | 286 nM |  |  | apparent KD of MS2 coat protein [3]: 301 nM; apparent KD of MS2 coat protein [4]: 293 nM
GGAAUACAUGAGGAUCACCCAUGUAAGGAUAUGCUGAAUAACACGGAAUUAACGUGCAGCAGAAGGUACAAAGG [Mat - Mod of my Eli Mod D43] (puzzle: Exclusion 1) | 63.3 nM |  |  | apparent KD of MS2 coat protein [3]: 62.8 nM; apparent KD of MS2 coat protein [4]: 113 nM
GGAAUACCCUCGAGUUAUCACAUGAGGAUCACCCAUGUCCCAAGCCUUUUGCUCUGAGCUGCGUAUACGCAGAUGUA [Eternabot (Original) Solution 23] (Eterna round: R97, puzzle: Sensor, turn-off variant 1) |  | 112 nM | 128 nM | 
GGACCAUAUCAGGAUAUGACUAGCCUCGGCUAGUCAGAAGGGAUGACAUGAGGAUCACCCAUGUGAUCAGGUCC [E6/1-C2] (Eterna round: R97, puzzle: Exclusion 6) |  | 59.5 nM | 36.7 nM | 
GGACGGUUAGUUAGGAUAUGCUCUACCUCGGUAGAGCAGAAGGGACAUGAGGAUCACCCAUGUGAUAACUGUUC [Omei Ex4B B35] (Eterna round: R97, puzzle: Brourd's mod of Exclusion 4) |  | 23.1 nM | 20.5 nM | 
GGAGAGGUAGGAUAUCCACUUUAGAACAUGAGGAUCACCCAUGUAGAACCACAUGAAAUGGGAGAAGGACCAGGGA [AK-MS2ROC-r4-exclusion5-3] (Eterna round: R97, puzzle: Exclusion 5) |  | 65.3 nM | 56.1 nM | 
GGAGAGGUAGGAUAUGGAGGUUAAAACAUGAGGAUCACCCAUGUUAAACCUCAUGACCGACUAGAAGGACCAGUCC [AK-MS2ROC-r4-exclusion5-8] (Eterna round: R97, puzzle: Exclusion 5) |  | 15 nM | 11.1 nM | 
GGAGGAAGAGAGGAUAUGCACUCAAGGAGAAAAGCAGAAGGUUCAACAUGAGGAUCACCCAUGUAUGAUCCUCA [AK-MS2ROC-r4-exclusion6-3] (Eterna round: R97, puzzle: Exclusion 6) |  | 247 nM | 197 nM | 
